Assay results reported in the supplement of paper PMC6757056.
± gives the standard deviation of the averaged measurements.

B1: library; a variant is named by its letters at N, in order (parent)
chain: GCUGUCACCGGAAUACCAGCAUCGUCUUGAUGCCCUUGGAAGUCCGGUCUGAUGAGUCCNNNNNGGACGAAACAGC

Experiments:
theophylline [1] = variants of: B1; experiment: FACS-Seq fitted mean relative fluorescence mCherry/BFP without ligand (log10 relative fluorescence); higher = higher reporter protein expression; conditions: HEK293T, ligand present: no
Method in brief: (§1)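 Enriched HEK293T cells carrying, by lentivirus, an mCherry reporter with the ribozyme switch and an EF1α-BFP marker spent 48 h with or without ligand and were sorted into 6 bins by mCherry/BFP. MiSeq sequencing of PCR-amplified bin genomic DNA gave bin counts. Fluorescence was calculated as the fitted normal mean of those counts. Counts were binned on log10(mCherry/BFP), and means were scaled to five spiked-in control ribozymes.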

theophylline [2] = variants of: B1; experiment: normalized RNA/DNA level with ligand (relative to sTRSVctl = 100) (log10 (% of sTRSVctl)); higher = less ribozyme self-cleavage, higher mRNA level; conditions: ligand concentration (+) RNA-Seq: 5 mM, HEK293T, reporter: mCherry (pCS4076), ligand present: yes
Method in brief: (§2)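 Total RNA, extracted with EDTA 72 h after HEK293T cells were transfected with 4 µg per 6-well well of reporter-linked ribozyme switch library plasmids, was reverse-transcribed, amplified, barcoded and sequenced. Ligand, if used, was added 1 h before transfection. RNA level was derived from RNA reads divided by DNA reads and normalized to a spiked-in non-cleaving sequence or to the top sequences. This was multiplied by 100 and log10-transformed, with the top set of 25 sequences and a ≥100 DNA read minimum.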

theophylline [3] = variants of: B1; experiment: normalized RNA/DNA level without ligand (relative to sTRSVctl = 100) (log10 (% of sTRSVctl)); higher = less ribozyme self-cleavage, higher mRNA level; conditions: HEK293T, reporter: mCherry (pCS4076), ligand present: no
Method in brief: as §2

theophylline [4] = variants of: B1; experiment: FACS-Seq fitted mean relative fluorescence mCherry/BFP with ligand (log10 relative fluorescence); ligand concentration (+) FACS-Seq: 1 mM; higher = higher reporter protein expression; conditions: HEK293T, ligand present: yes
Method in brief: as §1

Variant	FACS-Seq fitted mean (log10) (theophylline [1])	normalized RNA/DNA level with ligand (log10) (theophylline [2])	normalized RNA/DNA level without ligand (log10) (theophylline [3])	FACS-Seq fitted mean (log10) (theophylline [4])
CACAA	0.062 ± 0.032	2.014 ± 0.0084	1.56 ± 0.11	0.3195 ± 0.0011
CACAC	0.945 ± 0.11	2.02 ± 0.044	1.88 ± 0.11	1.03 ± 0.2
CUCUU	0.739 ± 0.01	2.032 ± 0.0025	1.91 ± 0.07	0.874 ± 0.038
ACCUC	0.785 ± 0.011	2.04 ± 0.034	1.98 ± 0.042	0.737 ± 0.044
ACCUA	1.18 ± 0.18	1.94 ± 0.021	1.88 ± 0.16	1.136 ± 0.0083
GAGAU	0.787 ± 0.038	1.97 ± 0.038	1.73 ± 0.074	0.958 ± 0.062
GCAAU	1.11 ± 0.06	1.96 ± 0.017	1.78 ± 0.027	1.06 ± 0.046
UUCGU	0.93 ± 0.0046	2.08 ± 0.14	2.02 ± 0.059	0.939 ± 0.067
AUGAC	0.5991 ± 0.0031	1.914 ± 0.016	1.87 ± 0.16	0.786 ± 0.021
UACGU	0.851 ± 0.024	2.022 ± 0.012	1.92 ± 0.014	0.816 ± 0.023
UUGGA	0.406 ± 0.064	2.01 ± 0.037	1.59 ± 0.14	0.494 ± 0.023
CAACU	0.64 ± 0.013	1.98 ± 0.048	1.73 ± 0.17	0.815 ± 0.097
CAACA	0.729 ± 0.046	1.98 ± 0.018	1.53 ± 0.0043	0.886 ± 0.058
AGUGC	0.289 ± 0.03	2.01 ± 0.0061	1.87 ± 0.071	0.297 ± 0.058
GUGAU	-0.224 ± 0.019	2 ± 0.12	1.66 ± 0.024	-0.0667 ± 0.046
AUGCG	0.848 ± 0.14	1.99 ± 0.11	1.87 ± 0.06	0.986 ± 0.1
UGAGU	0.6996 ± 0.0034	2.02 ± 0.17	1.86 ± 0.12	0.676 ± 0.013
AAUUA	0.392 ± 0.024	1.973 ± 0.0011	1.63 ± 0.13	0.477 ± 0.006
AAUUU	0.603 ± 0.084	1.98 ± 0.021	1.915 ± 0.0083	0.6371 ± 0.0013
UCAGA	0.377 ± 0.081	1.96 ± 0.099	1.55 ± 0.13	0.6274 ± 0.0049
UCAGU	0.741 ± 0.036	2.011 ± 0.018	1.875 ± 0.018	0.752 ± 0.097
UCACC	-0.0671 ± 0.15	1.92 ± 0.022	1.93 ± 0.053	0.0211 ± 0.046
UCACA	0.565 ± 0.12	2 ± 0.027	1.48 ± 0.097	0.896 ± 0.07
CGCCC	0.615 ± 0.021	2.01 ± 0.14	2.02 ± 0.04	0.725 ± 0.098

Variant	FACS-Seq fitted mean (log10) (theophylline [1])	normalized RNA/DNA level with ligand (log10) (theophylline [2])	normalized RNA/DNA level without ligand (log10) (theophylline [3])	FACS-Seq fitted mean (log10) (theophylline [4])
GAACG	1.01 ± 0.081	1.89 ± 0.14	1.793 ± 0.015	1.03 ± 0.028
GAACA	0.228 ± 0.096	1.92 ± 0.025	1.6 ± 0.015	0.116 ± 0.032
CAGUU	0.491 ± 0.036	2.06 ± 0.055	1.6287 ± 0.00046	0.76 ± 0.037
CAGUC	0.691 ± 0.085	1.94 ± 0.086	1.86 ± 0.14	0.68 ± 0.13
CAGUA	0.206 ± 0.0074	1.95 ± 0.15	1.27 ± 0.084	0.675 ± 0.018
CAUGU	0.628 ± 0.042	1.98 ± 0.033	1.96 ± 0.052	0.704 ± 0.062
CAUGC	0.705 ± 0.09	2.03 ± 0.085	1.98 ± 0.071	0.633 ± 0.01
AAUGC	0.537 ± 0.0095	2 ± 0.06	1.89 ± 0.025	0.692 ± 0.11
CCGAA	-0.229 ± 0.1	1.93 ± 0.06	1.4 ± 0.089	0.178 ± 0.11
UCCGA	0.81 ± 0.1	2.12 ± 0.14	1.946 ± 0.0097	0.6689 ± 0.002
UCCGU	0.694 ± 0.021	2.029 ± 0.013	2.03 ± 0.14	0.619 ± 0.023
GAGCU	0.479 ± 0.21	1.96 ± 0.14	1.8 ± 0.11	0.5269 ± 0.0042
ACCGA	0.6309 ± 0.0029	2.006 ± 0.015	1.77 ± 0.059	0.7685 ± 0.0034
ACCGG	0.955 ± 0.0037	1.95 ± 0.021	1.94 ± 0.076	1.05 ± 0.12
ACCGU	0.885 ± 0.043	1.952 ± 0.0024	1.83 ± 0.039	0.856 ± 0.08
CGAAC	0.992 ± 0.11	1.96 ± 0.076	1.72 ± 0.026	1.02 ± 0.089
UAGCG	1.09 ± 0.18	1.94 ± 0.066	1.9 ± 0.019	1.08 ± 0.016
UUGAC	0.872 ± 0.033	2.05 ± 0.042	1.93 ± 0.075	0.849 ± 0.085
CAGCA	0.319 ± 0.011	1.88 ± 0.099	1.52 ± 0.1	0.461 ± 0.062
UUCCG	0.818 ± 0.089	2.02 ± 0.032	2.017 ± 0.01	0.751 ± 0.086
UUCCC	1.02 ± 0.027	1.97 ± 0.04	1.99 ± 0.031	0.9913 ± 0.0095
AUUUG	0.103 ± 0.037	2.03 ± 0.083	1.93 ± 0.17	0.184 ± 0.037
AUUUA	0.734 ± 0.078	2 ± 0.11	1.8 ± 0.08	0.834 ± 0.062
CACUU	0.741 ± 0.014	2 ± 0.028	1.756 ± 0.0024	1.028 ± 0.0013

Variant	FACS-Seq fitted mean (log10) (theophylline [1])	normalized RNA/DNA level with ligand (log10) (theophylline [2])	normalized RNA/DNA level without ligand (log10) (theophylline [3])	FACS-Seq fitted mean (log10) (theophylline [4])
UGGGA	-0.00768 ± 0.057	2.02 ± 0.07	1.6195 ± 0.0012	0.178 ± 0.054
CCGGC	0.695 ± 0.065	2 ± 0.13	1.97 ± 0.044	0.721 ± 0.011
CCAGC	0.9205 ± 0.0079	1.96 ± 0.056	1.994 ± 0.008	0.864 ± 0.14
CCAGA	0.765 ± 0.044	1.95 ± 0.15	1.86 ± 0.098	0.758 ± 0.085
UCCUG	0.994 ± 0.063	2.02 ± 0.1	1.99 ± 0.037	0.905 ± 0.0097
AGAUA	0.67126 ± 0.00023	2.01 ± 0.027	1.61 ± 0.11	0.73474 ± 0.00057
CGACU	0.265 ± 0.1	2 ± 0.031	1.7 ± 0.14	0.5286 ± 0.0038
ACUAC	0.929 ± 0.041	1.98 ± 0.093	1.98 ± 0.084	0.984 ± 0.13
AUAGC	0.922 ± 0.023	1.94 ± 0.082	1.87 ± 0.12	0.9641 ± 0.0048
UGGCU	1.01 ± 0.063	2.01 ± 0.022	1.948 ± 0.011	0.992 ± 0.099
CUCCA	1.01 ± 0.29	2.03 ± 0.048	1.87 ± 0.038	0.946 ± 0.15
GACAG	0.769 ± 0.29	1.952 ± 0.0094	1.77 ± 0.055	0.612 ± 0.13
CCUAA	0.523 ± 0.071	1.98 ± 0.04	1.71 ± 0.13	0.725 ± 0.073
AUCAA	1.02 ± 0.047	1.95 ± 0.084	1.68 ± 0.12	1.15 ± 0.083
AUCAC	0.845 ± 0.16	1.98 ± 0.022	1.96 ± 0.068	0.786 ± 0.039
AAGAU	0.919 ± 0.085	1.97 ± 0.06	1.69 ± 0.052	1.06 ± 0.11
AUCGC	0.925 ± 0.082	1.977 ± 0.017	1.92 ± 0.11	0.889 ± 0.11
AUCGG	0.827 ± 0.073	1.91 ± 0.11	1.87 ± 0.051	0.782 ± 0.12
GAUGG	-0.543 ± 0.056	2 ± 0.062	1.8 ± 0.022	-0.332 ± 0.0071
CCCUC	0.893 ± 0.045	2.032 ± 0.012	2.11 ± 0.057	0.84 ± 0.019
UAUGC	0.174 ± 0.099	2.02 ± 0.087	2 ± 0.11	0.278 ± 0.059
UAUGA	0.56 ± 0.0061	1.92 ± 0.051	1.57 ± 0.064	0.686 ± 0.033
CGCAA	0.17 ± 0.043	1.888 ± 0.006	1.49 ± 0.074	0.271 ± 0.06
